Experimental findings from patent US12466878 (IMMATICS BIOTECHNOLOGIES, dated 2025) are described below.

This assay concerns the target T1, HLA-A*02:01 (human).
T1 construct: the format of the assay is not described
Kind of assay: ELISA-based peptide-MHC binding assay (FIG. 5).

In the case of KIQEILTQV [IGF2BP3-001 peptide KIQEILTQV (SEQ ID NO: 1)], the binding result is recorded as “binds”.
